Assay results taken from publication PMC11240955, “Stability Engineering of Recombinant Secretory IgA” (International Journal of Molecular Sciences, 2024).

Molecular target: T1, receptor-binding domain (RBD) of the SARS-CoV-2 spike, R319-F541, with a C-terminal 6xHis-tag (SARS-CoV-2, UniProt P0DTC2)
T1 construct: also called RBD-His; not shown: His6, C-terminal, kept
Assay: ELISA
Settings: both partners purified

B1: COVA2-15 monomeric IgA2m(1)_D133C (antibody, V domains shown)
VH: QVQLLESGGGLVQPGGSLRLSCAASGFTFSSYAMSWVRQAPGKGLEWASAISGSGGSTYYADSVEGRFTISRDNSKNTLYLQMNSLRAEDTAVYYCAKDTGYCGDDCYIKLIRGGPDYWGQGTLVTVSS
VL: DIVMTQSPLSLPVTLGQPASISCRSSQSLVYSDGNTFLNWFQQRPGQSPRRLIYQVSNRDSGVPDRFSGSGSGTDFTLKISRVEAEDVGVYYCMQGTHWPRTFGQGTKLEIK
notes: no single major 160 kDa peak in SEC; also called COVA2-15 mIgA2m(1)_D133C; mIgA2m(1)_D133C; copies: 2 + 2
Does B1 bind?
Result: binds
